According to the supplement of paper PMC10065799, “High-throughput profiling of sequence recognition by tyrosine kinases and SH2 domains using bacterial peptide display” (eLife, 2023):

What was measured:
Fer (mouse) = test: phosphorylation enrichment, bacterial display (enrichment ratio); higher = better substrate or ligand; peptides without Tyr show the background
MERTK = MERTK (UniProt Q12866); test: as above
c-Src = test: as above
EPHB2 = EPHB2 (UniProt P29323); test: as above
Hck = Hck (UniProt P08631); test: as above
EPHB1 = EPHB1 (UniProt P54762); test: as above
FGFR3 = FGFR3 (UniProt P22607); test: as above
AncSZ = test: as above
FGFR1 = FGFR1 (UniProt P11362); test: as above
Jak2 = Jak2 (UniProt O60674); test: as above
c-Abl (mouse) = test: as above
Fes = Fes (UniProt P07332); test: as above
Fyn = Fyn (UniProt P06241); test: as above
SHP2-C SH2 = test: SH2 binding enrichment of the phosphorylated peptide, bacterial display (enrichment ratio); higher = better substrate or ligand; peptides without Tyr show the background
c-Src SH2 = test: as above
Grb2 SH2 = Grb2 SH2 (UniProt P62993); test: as above
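Wherever SH2 binding enrichment of the phosphorylated peptide, bacterial display is given: peptide library displayed on the E. coli surface as eCPX fusions, selected cells deep-sequenced, score is each peptide's frequency after selection divided by its frequency in the input.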
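Wherever phosphorylation enrichment, bacterial display is given: 11-residue human phosphosite peptides and single-mutation variants displayed on the E. coli surface, counted by deep sequencing, each peptide's frequency after selection divided by its frequency in the unselected input library; frequency after pTyr selection over input frequency; kinase dosed for 20-30% of maximal phosphorylation in three min.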

Sequence of Hck (P08631 whole entry, looked up): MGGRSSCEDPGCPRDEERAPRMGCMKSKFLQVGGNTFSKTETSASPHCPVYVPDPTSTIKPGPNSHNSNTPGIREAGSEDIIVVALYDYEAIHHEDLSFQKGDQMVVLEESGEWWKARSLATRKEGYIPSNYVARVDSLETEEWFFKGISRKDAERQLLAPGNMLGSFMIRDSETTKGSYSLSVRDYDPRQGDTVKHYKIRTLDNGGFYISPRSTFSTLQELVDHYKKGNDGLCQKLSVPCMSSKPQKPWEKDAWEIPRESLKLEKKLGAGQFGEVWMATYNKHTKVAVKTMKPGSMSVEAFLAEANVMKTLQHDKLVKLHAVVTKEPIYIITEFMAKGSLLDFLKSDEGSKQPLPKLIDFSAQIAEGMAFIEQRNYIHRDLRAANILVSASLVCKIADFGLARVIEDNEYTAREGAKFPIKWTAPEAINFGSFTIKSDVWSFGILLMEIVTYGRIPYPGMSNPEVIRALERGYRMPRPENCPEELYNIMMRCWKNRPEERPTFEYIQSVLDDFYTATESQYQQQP
Sequence of EPHB2 (P29323 whole entry, looked up): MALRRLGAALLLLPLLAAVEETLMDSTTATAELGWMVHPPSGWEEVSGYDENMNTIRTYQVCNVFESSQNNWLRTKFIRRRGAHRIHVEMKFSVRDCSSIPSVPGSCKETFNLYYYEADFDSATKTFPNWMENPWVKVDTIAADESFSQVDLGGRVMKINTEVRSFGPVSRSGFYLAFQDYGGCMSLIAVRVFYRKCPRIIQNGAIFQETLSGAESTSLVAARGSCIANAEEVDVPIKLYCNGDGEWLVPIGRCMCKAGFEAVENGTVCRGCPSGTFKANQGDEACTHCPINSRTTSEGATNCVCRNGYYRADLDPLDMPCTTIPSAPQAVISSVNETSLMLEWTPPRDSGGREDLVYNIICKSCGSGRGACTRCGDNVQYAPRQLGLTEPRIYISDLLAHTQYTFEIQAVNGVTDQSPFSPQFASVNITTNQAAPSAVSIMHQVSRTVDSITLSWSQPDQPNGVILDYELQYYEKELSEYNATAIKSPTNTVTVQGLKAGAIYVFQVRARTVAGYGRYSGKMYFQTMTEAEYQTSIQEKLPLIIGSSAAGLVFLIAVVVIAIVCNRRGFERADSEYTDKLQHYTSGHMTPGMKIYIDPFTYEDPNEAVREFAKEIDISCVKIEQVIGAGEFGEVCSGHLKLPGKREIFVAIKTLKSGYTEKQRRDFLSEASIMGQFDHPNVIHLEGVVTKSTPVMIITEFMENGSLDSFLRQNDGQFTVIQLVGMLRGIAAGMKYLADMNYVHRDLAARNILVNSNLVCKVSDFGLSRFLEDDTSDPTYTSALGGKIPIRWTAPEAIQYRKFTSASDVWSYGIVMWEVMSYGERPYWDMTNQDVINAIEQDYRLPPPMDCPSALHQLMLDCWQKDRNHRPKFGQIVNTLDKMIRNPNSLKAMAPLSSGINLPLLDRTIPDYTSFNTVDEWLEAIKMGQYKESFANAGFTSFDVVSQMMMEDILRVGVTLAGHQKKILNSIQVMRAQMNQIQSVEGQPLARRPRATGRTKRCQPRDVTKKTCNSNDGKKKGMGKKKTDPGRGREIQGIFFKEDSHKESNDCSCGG
Sequence of MERTK (Q12866 whole entry, looked up): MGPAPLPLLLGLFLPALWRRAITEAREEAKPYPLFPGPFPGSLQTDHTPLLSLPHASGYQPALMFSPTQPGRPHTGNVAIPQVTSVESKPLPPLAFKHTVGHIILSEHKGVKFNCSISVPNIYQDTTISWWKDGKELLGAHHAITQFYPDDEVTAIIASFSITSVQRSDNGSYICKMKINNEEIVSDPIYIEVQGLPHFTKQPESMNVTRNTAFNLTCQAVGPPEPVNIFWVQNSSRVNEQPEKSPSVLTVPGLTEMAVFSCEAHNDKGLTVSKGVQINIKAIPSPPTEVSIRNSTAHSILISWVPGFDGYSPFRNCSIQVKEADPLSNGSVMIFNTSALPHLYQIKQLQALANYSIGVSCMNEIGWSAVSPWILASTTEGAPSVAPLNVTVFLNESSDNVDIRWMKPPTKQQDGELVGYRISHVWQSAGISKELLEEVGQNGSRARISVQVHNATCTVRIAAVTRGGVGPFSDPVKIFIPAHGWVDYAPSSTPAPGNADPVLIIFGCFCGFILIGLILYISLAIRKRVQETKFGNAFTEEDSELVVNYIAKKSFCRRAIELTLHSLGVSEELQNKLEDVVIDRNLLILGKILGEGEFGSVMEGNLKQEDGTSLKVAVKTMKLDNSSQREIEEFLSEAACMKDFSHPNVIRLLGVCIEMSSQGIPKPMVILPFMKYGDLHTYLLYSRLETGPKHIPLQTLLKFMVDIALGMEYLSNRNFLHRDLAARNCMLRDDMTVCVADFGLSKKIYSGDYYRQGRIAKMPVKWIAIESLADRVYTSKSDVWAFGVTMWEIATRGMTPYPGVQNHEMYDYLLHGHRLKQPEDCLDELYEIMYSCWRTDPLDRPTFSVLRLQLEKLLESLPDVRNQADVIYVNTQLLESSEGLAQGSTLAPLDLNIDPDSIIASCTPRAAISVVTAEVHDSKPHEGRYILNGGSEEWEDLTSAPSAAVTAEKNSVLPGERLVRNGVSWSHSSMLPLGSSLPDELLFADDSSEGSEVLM
Sequence of Fes (P07332 whole entry, looked up): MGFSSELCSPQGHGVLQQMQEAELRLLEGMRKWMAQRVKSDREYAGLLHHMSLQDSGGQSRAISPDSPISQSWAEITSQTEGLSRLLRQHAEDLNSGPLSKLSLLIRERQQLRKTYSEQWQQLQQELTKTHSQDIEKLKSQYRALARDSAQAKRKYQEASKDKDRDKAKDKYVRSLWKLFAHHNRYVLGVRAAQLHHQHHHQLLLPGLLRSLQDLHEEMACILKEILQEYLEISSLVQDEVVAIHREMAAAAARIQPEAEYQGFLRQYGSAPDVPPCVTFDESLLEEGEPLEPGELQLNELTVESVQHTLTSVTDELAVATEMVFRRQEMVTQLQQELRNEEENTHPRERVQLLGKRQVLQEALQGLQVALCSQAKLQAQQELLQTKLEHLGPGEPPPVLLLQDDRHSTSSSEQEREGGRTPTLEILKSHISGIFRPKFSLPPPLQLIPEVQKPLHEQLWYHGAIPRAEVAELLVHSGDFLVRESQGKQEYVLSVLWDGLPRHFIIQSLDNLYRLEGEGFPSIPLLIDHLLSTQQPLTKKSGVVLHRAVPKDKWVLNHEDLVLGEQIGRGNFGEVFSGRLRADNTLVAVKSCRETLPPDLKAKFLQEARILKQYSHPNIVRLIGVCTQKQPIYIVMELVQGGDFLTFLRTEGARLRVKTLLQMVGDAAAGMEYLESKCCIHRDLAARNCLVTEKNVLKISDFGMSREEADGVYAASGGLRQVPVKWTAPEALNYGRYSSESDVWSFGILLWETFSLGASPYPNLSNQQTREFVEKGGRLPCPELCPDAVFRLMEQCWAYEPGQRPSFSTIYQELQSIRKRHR
Sequence of Jak2 (O60674 whole entry, looked up): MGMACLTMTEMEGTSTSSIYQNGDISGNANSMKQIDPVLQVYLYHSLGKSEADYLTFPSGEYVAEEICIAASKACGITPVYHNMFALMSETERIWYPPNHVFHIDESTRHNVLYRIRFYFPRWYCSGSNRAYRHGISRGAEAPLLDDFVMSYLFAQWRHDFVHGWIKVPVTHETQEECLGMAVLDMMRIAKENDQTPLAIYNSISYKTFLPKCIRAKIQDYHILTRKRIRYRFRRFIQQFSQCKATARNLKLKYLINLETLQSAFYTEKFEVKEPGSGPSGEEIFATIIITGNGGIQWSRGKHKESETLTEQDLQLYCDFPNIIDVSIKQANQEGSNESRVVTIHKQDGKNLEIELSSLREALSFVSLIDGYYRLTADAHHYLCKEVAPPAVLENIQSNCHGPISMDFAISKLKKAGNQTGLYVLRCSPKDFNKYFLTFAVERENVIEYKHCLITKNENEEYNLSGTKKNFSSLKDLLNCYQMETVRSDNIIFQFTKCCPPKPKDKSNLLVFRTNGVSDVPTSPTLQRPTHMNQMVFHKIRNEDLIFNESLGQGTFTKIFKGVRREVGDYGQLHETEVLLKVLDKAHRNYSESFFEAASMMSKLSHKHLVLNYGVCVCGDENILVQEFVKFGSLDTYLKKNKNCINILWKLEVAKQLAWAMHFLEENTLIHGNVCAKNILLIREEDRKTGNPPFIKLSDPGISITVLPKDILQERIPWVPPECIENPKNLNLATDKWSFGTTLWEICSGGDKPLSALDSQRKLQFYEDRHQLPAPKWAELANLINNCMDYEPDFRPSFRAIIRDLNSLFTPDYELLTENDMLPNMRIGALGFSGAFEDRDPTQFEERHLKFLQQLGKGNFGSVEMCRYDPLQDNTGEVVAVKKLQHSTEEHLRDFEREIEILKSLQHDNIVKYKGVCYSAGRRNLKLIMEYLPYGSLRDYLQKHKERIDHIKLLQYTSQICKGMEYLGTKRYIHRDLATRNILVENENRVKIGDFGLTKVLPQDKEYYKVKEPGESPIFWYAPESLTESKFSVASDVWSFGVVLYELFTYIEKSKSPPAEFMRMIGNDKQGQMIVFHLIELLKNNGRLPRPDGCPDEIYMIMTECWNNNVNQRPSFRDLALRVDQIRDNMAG
Sequence of Fyn (P06241 whole entry, looked up): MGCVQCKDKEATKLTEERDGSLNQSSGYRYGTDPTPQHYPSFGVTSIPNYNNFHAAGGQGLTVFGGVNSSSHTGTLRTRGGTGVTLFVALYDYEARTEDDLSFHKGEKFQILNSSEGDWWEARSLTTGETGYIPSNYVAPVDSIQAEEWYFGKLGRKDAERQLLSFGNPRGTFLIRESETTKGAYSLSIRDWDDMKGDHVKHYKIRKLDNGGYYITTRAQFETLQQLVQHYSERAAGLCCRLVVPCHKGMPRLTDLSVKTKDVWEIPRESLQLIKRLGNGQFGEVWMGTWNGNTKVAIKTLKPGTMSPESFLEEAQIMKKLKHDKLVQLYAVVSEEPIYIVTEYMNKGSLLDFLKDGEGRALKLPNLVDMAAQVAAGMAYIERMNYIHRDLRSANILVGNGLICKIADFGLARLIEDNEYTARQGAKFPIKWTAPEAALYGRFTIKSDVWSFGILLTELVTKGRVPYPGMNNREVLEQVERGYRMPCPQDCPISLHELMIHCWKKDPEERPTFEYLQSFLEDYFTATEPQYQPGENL

Row | Sequence | SH2 binding enrichment (SHP2-C SH2) | SH2 binding enrichment (c-Src SH2) | SH2 binding enrichment (Grb2 SH2) | phosphorylation enrichment (Fer (mouse)) | phosphorylation enrichment (MERTK) | phosphorylation enrichment (c-Src) | phosphorylation enrichment (EPHB2) | phosphorylation enrichment (Hck) | phosphorylation enrichment (EPHB1) | phosphorylation enrichment (FGFR3) | phosphorylation enrichment (AncSZ) | phosphorylation enrichment (FGFR1) | phosphorylation enrichment (Jak2) | phosphorylation enrichment (c-Abl (mouse)) | phosphorylation enrichment (Fes) | phosphorylation enrichment (Fyn)
1 | PMDTFYDSTRG [DYNC2H1_Y2231_YF] | 0.646 | 1.08 | 1.04 | 1.43 | 0.501 | 0.664 | 1.04 | 1.71 | 0.919 | 0.806 | 1.08 | 0.714 | 0.892 | 0.582 | 1.05 | 0.982
2 | PPKFFYTRKLL [CYBB_Y41] | 0.709 | 0.461 | 1.01 | 0.513 | 0.766 | 0.439 | 0.683 | 0.462 | 0.457 | 0.614 | 1.12 | 1.22 | 0.658 | 0.694 | 0.801 | 0.779
3 | PPPELYFVKVD [TERT_Y707] | 1.04 | 0.534 | 1.18 | 0.626 | 2.69 | 1.55 | 0.49 | 1.4 | 0.629 | 1.28 | 1.76 | 0.638 | 2.84 | 1.19 | 1.81 | 0.962
4 | PQAVTYAKVKH [LILRB4_Y360] | 82.1 | 2.6 | 0.759 | 0.424 | 0.339 | 0.708 | 0.286 | 0.509 | 0.421 | 0.334 | 0.405 | 0.398 | 0.577 | 0.573 | 0.515 | 0.294
5 | PQAVTYATVKH [LILRB4_Y360_K362T] | 85.4 | 3.11 | 0.851 | 0.624 | 0.543 | 2.83 | 0.615 | 2.92 | 0.735 | 0.607 | 0.655 | 0.423 | 0.882 | 0.856 | 0.776 | 1.72
6 | PQIVNYSPDCI [LDHB_Y128_K127N] | 0.492 | 0.506 | 0.891 | 0.83 | 0.179 | 0.387 | 0.451 | 1 | 0.668 | 0.939 | 0.415 | 0.684 | 0.254 | 0.216 | 0.824 | 0.457
7 | PRPACYPSTVS [CACNA1C_Y1832_G1831C] | 0.8 | 0.65 | 0.865 | 0.381 | 0.356 | 0.484 | 0.435 | 0.49 | 0.575 | 0.598 | 0.554 | 0.49 | 0.721 | 0.437 | 0.792 | 0.51
8 | PSRKDYETYQP [CTNND2_Y1154] | 0.818 | 0.597 | 0.905 | 0.485 | 0.6 | 0.62 | 2.62 | 0.873 | 1.49 | 0.695 | 1.04 | 0.592 | 0.677 | 0.95 | 1.02 | 0.55
9 | PTATSYNPNLA [GABRA1_Y375_T376N] | 0.82 | 0.617 | 0.847 | 0.824 | 1.06 | 1.43 | 0.607 | 0.621 | 0.808 | 0.878 | 1.39 | 0.864 | 1.55 | 1.57 | 1.34 | 0.748
10 | PVEAAYQKVVA [HBB_Y131_Q128E] | 0.713 | 0.964 | 0.725 | 0.558 | 0.52 | 0.517 | 0.401 | 0.612 | 0.397 | 0.617 | 0.819 | 0.573 | 0.556 | 0.601 | 0.695 | 0.56
11 | PYSSPYENSLI [EPOR_Y489_N487S] | 0.773 | 5.18 | 2.51 | 2.52 | 0.683 | 0.875 | 0.596 | 0.705 | 0.39 | 0.506 | 0.83 | 0.527 | 0.929 | 0.902 | 0.924 | 0.668
12 | QEITTYRRLLE [KRT14_Y415_A413T] | 0.598 | 0.493 | 0.915 | 0.505 | 0.416 | 0.649 | 0.548 | 0.542 | 0.619 | 0.78 | 1.03 | 0.657 | 1.07 | 0.815 | 1.11 | 0.708
13 | QFPDIYAREEV [CRX_Y67_V66I_YF] | 0.9 | 0.525 | 1.02 | 0.707 | 0.773 | 1.23 | 1.21 | 1.56 | 0.628 | 1.26 | 1.82 | 1.15 | 2.02 | 0.99 | 1.91 | 0.959
14 | QGIPRYHSQSP [FOXF1_Y331] | 0.562 | 0.537 | 0.733 | 0.744 | 1.22 | 1.08 | 0.849 | 1.02 | 0.783 | 0.677 | 1.01 | 0.821 | 0.691 | 1.4 | 1.58 | 0.796

More lines, main results first:

Row | SH2 binding enrichment (SHP2-C SH2) | SH2 binding enrichment (c-Src SH2) | SH2 binding enrichment (Grb2 SH2) | Sequence | phosphorylation enrichment (Fer (mouse)) | phosphorylation enrichment (MERTK) | phosphorylation enrichment (c-Src) | phosphorylation enrichment (EPHB2) | phosphorylation enrichment (Hck) | phosphorylation enrichment (EPHB1) | phosphorylation enrichment (FGFR3) | phosphorylation enrichment (AncSZ) | phosphorylation enrichment (FGFR1) | phosphorylation enrichment (Jak2) | phosphorylation enrichment (c-Abl (mouse)) | phosphorylation enrichment (Fes) | phosphorylation enrichment (Fyn)
15 | 0.634 | 0.574 | 0.82 | PLFKIYVAELI [MRPL28_Y230] | 0.978 | 0.707 | 0.791 | 0.772 | 0.738 | 0.919 | 1.54 | 2.14 | 0.806 | 1.71 | 0.947 | 2.35 | 0.658
16 | 0.638 | 1.54 | 0.807 | PLQKIYNYNVL [SLC4A1_Y553_T552I] | 0.582 | 1.09 | 1.32 | 1.05 | 0.564 | 0.773 | 1.04 | 0.585 | 0.514 | 1.05 | 0.748 | 1 | 0.409
17 | 0.474 | 0.421 | 0.724 | PMFTKYGNGLL [RPGRIP1L_Y196_S199G] | 0.71 | 0.518 | 0.79 | 0.525 | 0.534 | 0.762 | 0.668 | 1.28 | 0.496 | 1.09 | 1.31 | 1.1 | 0.494
18 | 0.6 | 0.605 | 1.14 | PMQLPYDSRWE [PDGFRA_Y582] | 0.485 | 0.353 | 0.893 | 0.623 | 0.706 | 0.472 | 0.712 | 1.05 | 0.523 | 0.821 | 0.577 | 0.854 | 0.665
19 | 0.676 | 0.557 | 0.847 | PNRILYRDFRQ [MYH7_Y715_G716R] | 0.373 | 0.574 | 0.485 | 0.615 | 0.452 | 0.544 | 0.573 | 0.633 | 0.472 | 0.79 | 0.74 | 0.778 | 0.307
20 | 0.508 | 0.551 | 0.729 | PPAPRYHDSAV [LZTR1_Y119_H121D] | 0.448 | 0.741 | 0.728 | 0.476 | 0.684 | 0.658 | 0.711 | 0.73 | 0.532 | 0.979 | 0.743 | 0.877 | 0.861
21 | 0.878 | 0.512 | 1.16 | PPGRSYSPFDF [TNS1_Y793_YF] | 1.1 | 0.598 | 0.497 | 0.599 | 0.6 | 0.4 | 0.75 | 0.824 | 0.505 | 0.843 | 0.602 | 0.81 | 0.635
22 | 5.59 | 1.12 | 0.85 | PQDVTYARLHS [LILRB4_Y412_Q414R] | 0.786 | 0.735 | 2.3 | 0.797 | 4.33 | 0.808 | 0.603 | 0.757 | 0.774 | 0.518 | 0.842 | 1.51 | 1.91
23 | 0.631 | 0.405 | 0.753 | PRDGEYFTLQI [TP53_Y327_L323R] | 0.775 | 0.93 | 3.76 | 1.19 | 2.14 | 1.31 | 8.55 | 2.81 | 11.7 | 3.26 | 1.75 | 1.38 | 2.55
24 | 1.15 | 0.655 | 0.936 | PSQRRYLFFFS [PTEN_Y174_V175L_YF] | 0.531 | 0.756 | 0.441 | 0.804 | 0.716 | 0.818 | 0.915 | 1.86 | 0.607 | 1.74 | 0.991 | 1.93 | 0.753
25 | 0.663 | 2.47 | 1.75 | PTYEHYANSTQ [SLC12A3_Y70] | 0.828 | 0.912 | 5.29 | 2.33 | 1.53 | 1.2 | 0.807 | 1.05 | 0.492 | 0.924 | 0.753 | 1.2 | 2.56
26 | 4.74 | 1.95 | 0.665 | PVKSEYSSIKL [NPC2_Y119_P120S] | 0.702 | 0.5 | 0.602 | 0.533 | 1.11 | 0.579 | 0.523 | 0.783 | 0.518 | 0.737 | 1.03 | 1.06 | 0.553
27 | 0.525 | 0.434 | 0.747 | QELRRYLKSGI [MICA_Y194_V199I] | 0.534 | 0.406 | 0.294 | 0.281 | 0.496 | 0.332 | 0.313 | 0.489 | 0.429 | 0.335 | 0.402 | 0.458 | 0.482
28 | 0.64 | 0.561 | 0.712 | QHNPEYVQQAS [LRRC7_Y1058] | 0.73 | 0.423 | 0.597 | 0.604 | 0.69 | 0.542 | 0.65 | 0.843 | 0.486 | 0.544 | 0.641 | 0.867 | 0.486
29 | 0.633 | 0.494 | 0.776 | QHVPDYRQNGF [PCDHGA1_Y890_V894G_YF] | 0.503 | 0.464 | 0.543 | 0.459 | 0.455 | 0.589 | 0.597 | 0.787 | 0.55 | 0.826 | 0.758 | 0.875 | 0.531
